Data on three molecules can be found in patent US6887705B1, “Tyrosine phosphorylated cleavage furrow-associated proteins (PSTPIPs)” (Genentech, Inc., priority 1997, dated 2005).

“Also recorded” adds a separate entry of the source.

One assay deals with CHO cells. As to the kind of experiment: Confocal microscopy of PST PIP forms expressed in CHO cells. It counts as cell-based, Chinese hamster. The following applies: transfected CHO cells. The protocol:
Confocal microscopy was performed as previously described (Spencer et al, (1997), supra). Briefly, CHO cells in chamber slides were transfected using Lipofectamine and the indicated plasmids. 48 hours later, cells were fixed in formaldehyde and stained with an anti-FLAG epitope specific antibody (Kodak) and Fluorescein-Phalloidin (Molecular Probes). Anti-Flag stained cells were washed and stained with Cy3-conjugated sheep anti-mouse IgG. Stained cells were observed using Molecular Dynamics Confocal Microscope™ (2001) and analyzed with ImageSpace™ software (Molecular Dynamics).

The target of the next assay is T1, PTP HSCF (Mus musculus, UniProt Q61152).
T1 construct: the PST (and C-terminal homolog) of PTP HSCF (amino acids 304-453); made in house; host or cells: E. coli DH5-alpha
T1 sequence (Q61152 304-453): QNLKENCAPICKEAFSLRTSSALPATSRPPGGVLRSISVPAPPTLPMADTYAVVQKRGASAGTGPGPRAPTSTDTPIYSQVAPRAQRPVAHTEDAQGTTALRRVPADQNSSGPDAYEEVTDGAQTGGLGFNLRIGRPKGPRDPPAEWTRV
As to the kind of experiment: In vitro GST pull-down binding of PST PIP forms to PTP HSCF. The protocol:
The binding was carried out according to the method of Wong and Johnson (Wong et al., J. Biol. Chem. 271(35):20981-20984 (1996)). Briefly, 1 μg of plasmid with either the PSTPIP protein or PTP HSCF under the control of the Sp6 promoter was in vitro transcribed/translated using the Promega™ TnT Rabbit Reticulocyte™ system. Samples were diluted in 50 mM HEPES, pH 7.2, 1% triton X 100, 10% glycerol, 100 mM NaCl, 5 mM EDTA and 2 μg/ml each of leupeptin, pepstatin, aprotinin, and PMSF. […] This was reacted for 1 hour at 4° C. and then the resin washed 6 times in HEPES/Triton binding buffer before SDS gel electrophoresis. The peptides were synthesized on an automated Milligen 9050 Peptide Synthesizer using standard solid phase chemistry with FMOC protected amino acids on a p-alkoxybenzyl alcohol resin. Dried peptides were re-suspended in the HEPES/Triton Binding buffer at a concentration of 10 mg/ml. Peptide inhibition was performed by adding the peptide first to the in vitro translation product and then the GST-fusion followed by the GSH-Sepharose. The binding/washing steps were as previously described. The peptides synthesized and the PTPs they were derived from were: • PXXP-HSCF: 432[…]451 (PTP HSCF) (SEQ ID NO:20), • PXXP-PEP: 782GFGNRFSKPKGPRNPPSAW800 (PTP PEP) (SEQ ID NO:21), • PXXP-PEST: 761[…]780 (PTP PEST) SEQ ID NO:22), • PXXP-CONTROL: 334[…]353 (PTP HSCF) (SEQ ID NO:23).
In vitro binding analyses between various PTP HSCF and PST PIP constructs were performed as previously described (Spencer et al, (1997), supra). Briefly, plasmids were transcribed and translated in vitro using the TnT Rabbit Reticulocyte Lysate System (Promega). Samples were diluted in 50 mM HEPES, pH 7.2, 1% triton X-100, 10% glycerol, 100 mM NaCl, and 2 μg/ml each of leupeptin, pepstatin, aprotinin and PMSF (lysis buffer). Samples were than reacted with GST fusion proteins at various concentrations, and the bound proteins were centrifuged using glutathione-sepharose beads and analyzed on SDS polyacrylamide gels. C-terminally-derived peptide inhibition studies were performed by incubating the GST fusion protein binding reactions in the presence of 10 μg/ml of the indicated peptides. Peptides were produced by FMOC-protected amino acids as previously described (Spencer et al, (1997), supra). In vivo interactions between various forms of PTP HSCF and PST PIP were also performed as previously described (Spencer et al, (1997), supra). Briefly, COS cells were transfected with various constructs, and after 48 hours, lysates were prepared and immunoprecipitated with antibodies to either the FLAG epitope contained at the C-terminus of PST PIP or an HA epitope contained at the N-terminus of PTP HSCF. The resultant blots were probed with anti-FLAG to detect PST PIP, anti-HA to detect PTP HSCF or anti-phosphotyrosine to detect levels of this modified amino acid in each protein.

B1: W232A mutant of PST PIP, C-terminal FLAG (other)
chain: MMAQLQFRDAFWCRDFTAHTGYEVLLQRLLDGRKMCKDVEELLRQRAQAEERYGKELVQIARKAGGQTEMNSLRTSFDSLKQQTENVGSAHIQLALALREELRSLEEFRERQKEQRKKYEAIMDRVQKSKLSLYKKTMESKKAYDQKCRDADDAEQAFERVSANGHQKQVEKSQNKAKQCKESATEAERVYRQNIEQLERARTEWEQEHRTTCEAFQLQEFDRLTILRNALAVHCNQLSMQCVKDDELYEEVRLTLEGCDVEGDINGFIQSKSTGREPPAPVPYQNYYDREVTPLIGSPSIQPSCGVIKRFSGLLHGSPKTTPSAPAASTETLTPTPERNELVYASIEVQATQGNLNSSAQDYRALYDYTAQNSDELDISAGDILAVILEGEDGWWTVERNGQRGFVPGSYLEKLDYKDDDDK
notes: In vitro translated or expressed in COS cells; also called W232A PST PIP; PST PIP with an alanine replacement mutation at tryptophan232
For the molecule B1, the “cellular localization of PST PIP forms (assay for correct folding)” value in the assay on CHO cells was “indistinguishable from the wild type protein”. In addition, the “binding of in vitro translated PST PIP forms to GST fusion of C-terminal 149 amino acids of PTP HSCF” value in the assay with PTP HSCF was “complete loss of binding; also recorded: abolishes the interaction”.

B2: PSTPIP: murine PST Phosphatase Interacting Protein, 415 residues (SEQ ID NO:1) (protein)
chain: MMAQLQFRDAFWCRDFTAHTGYEVLLQRLLDGRKMCKDVEELLRQRAQAEERYGKELVQIARKAGGQTEMNSLRTSFDSLKQQTENVGSAHIQLALALREELRSLEEFRERQKEQRKKYEAIMDRVQKSKLSLYKKTMESKKAYDQKCRDADDAEQAFERVSANGHQKQVEKSQNKAKQCKESATEAERVYRQNIEQLERARTEWEQEHRTTCEAFQLQEFDRLTILRNALWVHCNQLSMQCVKDDELYEEVRLTLEGCDVEGDINGFIQSKSTGREPPAPVPYQNYYDREVTPLIGSPSIQPSCGVIKRFSGLLHGSPKTTPSAPAASTETLTPTPERNELVYASIEVQATQGNLNSSAQDYRALYDYTAQNSDELDISAGDILAVILEGEDGWWTVERNGQRGFVPGSYLEKL
modifications: Mus Musculus
For the molecule B2, the “cellular localization of PST PIP forms (assay for correct folding)” value in the assay with CHO cells is recorded as “predominantly co-localized with the cortical actin cytoskeleton”. Further, the “binding of in vitro translated PST PIP forms to GST fusion of C-terminal 149 amino acids of PTP HSCF” value with PTP HSCF was “capable of interacting”.

B3: GST-PSTPIP (GST fusion of full-length PSTPIP, amino acids 2-415) (other)
chain: MAQLQFRDAFWCRDFTAHTGYEVLLQRLLDGRKMCKDVEELLRQRAQAEERYGKELVQIARKAGGQTEMNSLRTSFDSLKQQTENVGSAHIQLALALREELRSLEEFRERQKEQRKKYEAIMDRVQKSKLSLYKKTMESKKAYDQKCRDADDAEQAFERVSANGHQKQVEKSQNKAKQCKESATEAERVYRQNIEQLERARTEWEQEHRTTCEAFQLQEFDRLTILRNALWVHCNQLSMQCVKDDELYEEVRLTLEGCDVEGDINGFIQSKSTGREPPAPVPYQNYYDREVTPLIGSPSIQPSCGVIKRFSGLLHGSPKTTPSAPAASTETLTPTPERNELVYASIEVQATQGNLNSSAQDYRALYDYTAQNSDELDISAGDILAVILEGEDGWWTVERNGQRGFVPGSYLEKL
notes: Made in DH5-alpha bacteria from pGEX4T-2; also called GST-full-length PSTPIP; GST PTP PIP; not shown: glutathione S-transferase encoded by pGEX-4T-2 (Pharmacia)
Regarding B3, the “precipitation of in vitro translated PTP HSCF by GST fusions of PSTPIP or its domains” value with PTP HSCF (~1 microgram per ml GST fusion protein) is reported as “high degree of specificity”.
